The record followed here is US20120009181A1.

Assay [1] has as its target human folate receptor 1 (FOLR1) (human).
The target is the same in assay [2]. The source holds these as a separate data set.
For assay [3] the target is unchanged. This is another data set of the same source.

B1: huMov19 (antibody, V domains shown)
VH: QVQLVQSGAEVVKPGASVKISCKASGYTFTGYFMNWVKQSPGQSLEWIGRIHPYDGDTFYNQKFQGKATLTVDKSSNTAHMELLSLTSEDFAVYYCTRYDGSRAMDYWGQGTTVTVSS
VL: DIVLTQSPLSLAVSLGQPAIISCKASQSVSFAGTSLMHWYHQKPGQQPRLLIYRASNLEAGVPDRFSGSGSKTDFTLNISPVEAEDAATYYCQQSREYPYTFGGGTKLEIKR
As for B1, in assay [1], the ADCC, LDH release, percent specific lysis of IGROV-1 cells with human NK effector cells is 30% and the EC50 of ADCC activity on IGROV-1 cells was determined as 0.2 ng/mL.

B2: huMov19-SPDB-DM4 (antibody, V domains shown)
VH: QVQLVQSGAEVVKPGASVKISCKASGYTFTGYFMNWVKQSPGQSLEWIGRIHPYDGDTFYNQKFQGKATLTVDKSSNTAHMELLSLTSEDFAVYYCTRYDGSRAMDYWGQGTTVTVSS
VL: DIVLTQSPLSLAVSLGQPAIISCKASQSVSFAGTSLMHWYHQKPGQQPRLLIYRASNLEAGVPDRFSGSGSKTDFTLTISPVEAEDAATYYCQQSREYPYTFGGGTKLEIKR
modifications: maytansinoid DM4 linked to the antibody through the SPDB linker, 3.5-4 DM4 per antibody; attachment residues not stated
In turn, B2 yielded an IC50, nM (n = 3), Ab-based; in vitro cytotoxicity on JEG-3 cells in assay [2] of 0.2 nM.

B3: huMov19-sulfo-SPDB-DM4 (antibody, V domains shown)
VH: QVQLVQSGAEVVKPGASVKISCKASGYTFTGYFMNWVKQSPGQSLEWIGRIHPYDGDTFYNQKFQGKATLTVDKSSNTAHMELLSLTSEDFAVYYCTRYDGSRAMDYWGQGTTVTVSS
VL: DIVLTQSPLSLAVSLGQPAIISCKASQSVSFAGTSLMHWYHQKPGQQPRLLIYRASNLEAGVPDRFSGSGSKTDFTLTISPVEAEDAATYYCQQSREYPYTFGGGTKLEIKR
modifications: maytansinoid DM4 linked to the antibody through the sulfo-SPDB linker, 3.5-4 DM4 per antibody; attachment residues not stated
For the molecule B3, the IC50, nM (n = 3), Ab-based; in vitro cytotoxicity on IGROV-1 cells in assay [2] was 0.3 nM.

B4: huMov19-SMCC-DM1 (antibody, V domains shown)
VH: QVQLVQSGAEVVKPGASVKISCKASGYTFTGYFMNWVKQSPGQSLEWIGRIHPYDGDTFYNQKFQGKATLTVDKSSNTAHMELLSLTSEDFAVYYCTRYDGSRAMDYWGQGTTVTVSS
VL: DIVLTQSPLSLAVSLGQPAIISCKASQSVSFAGTSLMHWYHQKPGQQPRLLIYRASNLEAGVPDRFSGSGSKTDFTLNISPVEAEDAATYYCQQSREYPYTFGGGTKLEIKR
modifications: maytansinoid DM1 linked to the antibody through the SMCC linker, 3.5-4 DM1 per antibody; attachment residues not stated
In assay [2], B4 returned an IC50, nM (n = 3), Ab-based; in vitro cytotoxicity on IGROV-1 cells of 1 nM; an IC50, nM (n = 3), Ab-based; in vitro cytotoxicity on JEG-3 cells of 20 nM; an IC50, nM (n = 3), Ab-based; in vitro cytotoxicity on KB cells of 0.1 nM. The molecule also had a huAb-smcc-DM1 activity on KB in vitro in assay [3] of 0.1 nM.
